Data published in publication PMC6205234.

molecular target: GST-NS1 (Influenza A virus (H3N2)) (UniProt P03495); test: fluorescence anisotropy
Sequence (P03495 whole entry): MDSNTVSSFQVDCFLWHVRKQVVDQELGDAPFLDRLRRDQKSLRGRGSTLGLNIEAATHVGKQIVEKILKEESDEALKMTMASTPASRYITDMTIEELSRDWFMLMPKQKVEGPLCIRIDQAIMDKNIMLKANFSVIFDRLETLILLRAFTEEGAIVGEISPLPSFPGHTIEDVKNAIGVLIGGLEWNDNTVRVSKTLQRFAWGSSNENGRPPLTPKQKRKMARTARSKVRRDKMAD

**Q.** Which Kd does the source give for “CCAUCCUCUACAGGCG / CGCCUGUAGAGGAUGG [dsRK1]” here?
**A.** Its Kd is 170 nM.

**Q.** How did the Kd turn out when “GCUAUCCAGAUUCUGAUU / GAAUCAGAAUCUGGAUAGC [dsCR1]” was run?
**A.** The Kd was 2400 nM.

**Q.** With GGGGGGGGGGGGGGGGGU [Poly (G)18] as the sequence, how does the Kd read?
**A.** The Kd was 1200 nM.
